Data published in PMC8409457, “An evolution-inspired strategy to design disulfide-rich peptides tolerant to extensive sequence manipulation†” (Chemical Science, 2021).
Bridges are numbered along the chain shown (N, C = ends). Where no end group is shown, it is not given here.

What was measured:
streptavidin = target: T1, streptavidin (UniProt P22629 25-183); assay: SPR; binding of peptide to streptavidin; settings: both partners purified
T1 construct: streptavidin, model target; Source may be told in the ESI

MDM2 = target: T2, MDM2 (UniProt Q00987 1-491); assay: fluorescence polarisation; competition assay on MDM2 (reported assay, ref. 17); peptides purified by HPLC to >95%; tracer not named; settings: both partners purified
T2 construct: MDM2, the protein target of pb13
T2 sequence (Q00987 whole entry): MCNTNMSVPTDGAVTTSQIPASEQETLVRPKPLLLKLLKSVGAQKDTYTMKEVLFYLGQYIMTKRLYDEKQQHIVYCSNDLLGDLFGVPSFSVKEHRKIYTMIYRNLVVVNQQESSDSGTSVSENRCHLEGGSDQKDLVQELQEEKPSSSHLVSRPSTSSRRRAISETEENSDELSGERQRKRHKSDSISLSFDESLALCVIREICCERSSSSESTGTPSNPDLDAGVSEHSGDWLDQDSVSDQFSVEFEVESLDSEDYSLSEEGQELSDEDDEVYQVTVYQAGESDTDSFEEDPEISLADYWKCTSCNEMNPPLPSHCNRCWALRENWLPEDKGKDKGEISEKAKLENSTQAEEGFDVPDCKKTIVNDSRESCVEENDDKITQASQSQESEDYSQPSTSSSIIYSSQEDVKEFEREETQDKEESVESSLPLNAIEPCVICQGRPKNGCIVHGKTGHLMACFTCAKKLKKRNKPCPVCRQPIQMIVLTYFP

T1 sequence (P22629 25-183): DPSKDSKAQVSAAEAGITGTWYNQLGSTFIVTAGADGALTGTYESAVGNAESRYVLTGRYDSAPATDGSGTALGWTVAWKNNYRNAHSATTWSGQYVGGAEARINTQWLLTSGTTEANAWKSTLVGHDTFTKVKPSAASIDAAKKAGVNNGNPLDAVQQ

GCGSDEACFCPCSHPENCPMAQHC (disulfide (positions not given here)) [tricyclic peptide 17]
Kd (streptavidin): 38 nM

GCEKATESESPCPCIFPELCPWIVCC (disulfide 12-25, 14-20, 2-26) [oxidized peptide 15]
Ki (MDM2): 89 nM
